# Source: the supplement of paper PMC9116672
# ± gives the standard deviation of the averaged measurements or the uncertainty stated by the source.
# Key:
# [1] = duplex formation enthalpy ΔH (Van't Hoff fit of HRM Tm); higher = less exothermic duplex formation; settings: temperature for dG: 50 °C, NaCl: 500 mM (unadjusted)
# Description: (§1)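 Duplex of the listed DNA strand with its complement, in 1x NNE buffer (500 mM NaCl, pH 7.0) with 1x EvaGreen. ΔH and ΔS come from a Van't Hoff linear fit of 1/Tm against ln(CT/4) over 1-20 uM, using HRM Tm values.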
# [2] = duplex formation free energy ΔG50 (Van't Hoff fit of HRM Tm); higher = less stable duplex; settings: temperature for dG: 50 °C, NaCl: 500 mM (unadjusted)
# Description: as §1
# [3] = duplex melting temperature (HRM, EvaGreen); higher = more stable duplex
# Description: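 Listed DNA strand annealed 1:1 with its complementary strand (95 °C 5 min, 0.1 °C/s to 20 °C). Melted in 1x NNE buffer (500 mM NaCl, 10 mM Na2HPO4, 1 mM EDTA, pH 7.0) with 1x EvaGreen on a LightCycler96 (37 to 97 °C, 0.1 °C/s). Tm is the peak of -dF/dT at the stated total duplex concentration; 4 replicates are averaged. PS oligos are non-stereospecific (Rp/Sp mixtures).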
# [4] = duplex formation entropy ΔS (Van't Hoff fit of HRM Tm); higher = smaller entropy loss on duplex formation; settings: temperature for dG: 50 °C, NaCl: 500 mM (unadjusted)
# Description: as §1
# [5] = backbone: PS-PO (listed strand fully phosphorothioate, complement phosphodiester)
# [6] = backbone: PS-PS (both strands fully phosphorothioate)
# [7] = duplex concentration 1 µM, backbone: PS-PS (both strands fully phosphorothioate)
# [8] = duplex concentration 2.5 µM, backbone: PO-PO (both strands phosphodiester DNA)
# [9] = duplex concentration 2.5 µM, backbone: PS-PS (both strands fully phosphorothioate)
# [10] = duplex concentration 5 µM, backbone: PO-PO (both strands phosphodiester DNA)
# [11] = duplex concentration 5 µM, backbone: PS-PS (both strands fully phosphorothioate)
# [12] = duplex concentration 7.5 µM, backbone: PO-PO (both strands phosphodiester DNA)
# [13] = duplex concentration 7.5 µM, backbone: PS-PO (listed strand fully phosphorothioate, complement phosphodiester)
# [14] = duplex concentration 7.5 µM, backbone: PS-PS (both strands fully phosphorothioate)
# [15] = duplex concentration 10 µM, backbone: PO-PO (both strands phosphodiester DNA)
# [16] = duplex concentration 10 µM, backbone: PS-PO (listed strand fully phosphorothioate, complement phosphodiester)
# [17] = duplex concentration 10 µM, backbone: PS-PS (both strands fully phosphorothioate)
# [18] = duplex concentration 15 µM, backbone: PO-PO (both strands phosphodiester DNA)
# [19] = duplex concentration 15 µM, backbone: PS-PO (listed strand fully phosphorothioate, complement phosphodiester)
# [20] = duplex concentration 15 µM, backbone: PS-PS (both strands fully phosphorothioate)
# [21] = duplex concentration 20 µM, backbone: PO-PO (both strands phosphodiester DNA)
# [22] = duplex concentration 20 µM, backbone: PS-PO (listed strand fully phosphorothioate, complement phosphodiester)
# [23] = duplex concentration 20 µM, backbone: PS-PS (both strands fully phosphorothioate)
# [24] = backbone: PO-PO (both strands phosphodiester DNA)
# [25] = duplex concentration 1 µM, backbone: PO-PO (both strands phosphodiester DNA)
# [26] = duplex concentration 2.5 µM, backbone: PS-PO (listed strand fully phosphorothioate, complement phosphodiester)
# [27] = duplex concentration 5 µM, backbone: PS-PO (listed strand fully phosphorothioate, complement phosphodiester)
# [28] = duplex concentration 1 µM, backbone: PS-PO (listed strand fully phosphorothioate, complement phosphodiester)
Sequence,"duplex formation enthalpy ΔH [1, 5] [kcal/mol]","duplex formation enthalpy ΔH [1, 6] [kcal/mol]","duplex formation free energy ΔG50 [2, 5] [kcal/mol]","duplex formation free energy ΔG50 [2, 6] [kcal/mol]","duplex melting temperature [3, 7] [°C]","duplex melting temperature [3, 8] [°C]","duplex melting temperature [3, 9] [°C]","duplex melting temperature [3, 10] [°C]","duplex melting temperature [3, 11] [°C]","duplex melting temperature [3, 12] [°C]","duplex melting temperature [3, 13] [°C]","duplex melting temperature [3, 14] [°C]","duplex melting temperature [3, 15] [°C]","duplex melting temperature [3, 16] [°C]","duplex melting temperature [3, 17] [°C]","duplex melting temperature [3, 18] [°C]","duplex melting temperature [3, 19] [°C]","duplex melting temperature [3, 20] [°C]","duplex melting temperature [3, 21] [°C]","duplex melting temperature [3, 22] [°C]","duplex melting temperature [3, 23] [°C]","duplex formation entropy ΔS [4, 5] [cal/mol/K]","duplex formation entropy ΔS [4, 6] [cal/mol/K]","duplex formation enthalpy ΔH [1, 24] [kcal/mol]","duplex formation free energy ΔG50 [2, 24] [kcal/mol]","duplex melting temperature [3, 25] [°C]","duplex melting temperature [3, 26] [°C]","duplex melting temperature [3, 27] [°C]","duplex formation entropy ΔS [4, 24] [cal/mol/K]","duplex melting temperature [3, 28] [°C]"
GGTGGCGTTCTT,-45.3 ± 2.7,-41.1 ± 3.2,-9.41 ± 0.08,-8.491 ± 0.033,40.15 ± 0.21,61.9,44.6 ± 0.65,63 ± 0.79,48.03 ± 0.26,64.6 ± 0.54,57,49.76 ± 0.44,65.58 ± 0.13,58.31 ± 0.53,51.3 ± 0.97,66.42 ± 0.23,60.44 ± 0.39,53.7 ± 1.4,67.68 ± 0.13,61.54 ± 0.24,55.8 ± 0.86,-111 ± 8.2,-101 ± 9.8,,,,,,,
TTAACCTGCAATGGATC,-73.7 ± 2,-67.1 ± 1.9,-10.78 ± 0.066,-8.858 ± 0.019,45.6 ± 0.62,63.2 ± 0.41,48.62 ± 0.33,65.13 ± 0.59,50.69 ± 0.37,66.57 ± 0.28,60.587 ± 0.046,51.91 ± 0.21,67.55 ± 0.2,61.376 ± 0.056,52.76 ± 0.14,68.98 ± 0.14,62.586 ± 0.015,54.03 ± 0.099,70.06 ± 0.25,63.32 ± 0.095,54.97 ± 0.2,-195 ± 6.1,-180 ± 5.8,-68.7 ± 2,-11.83 ± 0.098,60.19 ± 0.12,57.18 ± 0.21,59.09 ± 0.26,-176 ± 5.8,
AGCACGGTGGTACAACA,-78.6 ± 2,-67.6 ± 3.5,-12.23 ± 0.093,-9.892 ± 0.075,50.09 ± 0.18,67.58 ± 0.38,53.82 ± 0.069,69.83 ± 0.28,56.17 ± 0.085,71.17 ± 0.15,66.25 ± 0.082,57.1 ± 0.12,72.2 ± 0.18,67.06 ± 0.081,57.92 ± 0.08,73.4 ± 0.13,68.18 ± 0.11,59.07 ± 0.11,74.39 ± 0.17,69.05 ± 0.15,59.74 ± 0.13,-205 ± 5.8,-179 ± 11,-71.3 ± 2.6,-12.8 ± 0.17,,63.2 ± 0.2,65.28 ± 0.1,-181 ± 7.5,60.27 ± 0.38
CGTGCAGCACTACTTG,-71.3 ± 1.7,-67.6 ± 3.5,-11.31 ± 0.067,-9.892 ± 0.075,50.09 ± 0.18,67.58 ± 0.38,53.82 ± 0.069,69.83 ± 0.28,56.17 ± 0.085,71.17 ± 0.15,63.49 ± 0.13,57.1 ± 0.12,72.2 ± 0.18,64.33 ± 0.093,57.92 ± 0.08,73.4 ± 0.13,65.6 ± 0.099,59.07 ± 0.11,74.39 ± 0.17,66.47 ± 0.25,59.74 ± 0.13,-186 ± 5,-179 ± 11,-71.3 ± 2.6,-12.8 ± 0.17,,60.02 ± 0.13,62.35 ± 0.23,-181 ± 7.5,56.81 ± 0.29
TATTCTGCCAATGGAAC,-75.2 ± 2,-69.8 ± 2.2,-10.59 ± 0.059,-8.755 ± 0.02,45.3 ± 0.74,63.72 ± 0.46,48.29 ± 0.081,65.46 ± 0.21,50.06 ± 0.16,66.751 ± 0.054,59.47 ± 0.085,51.303 ± 0.046,67.63 ± 0.082,60.21 ± 0.12,52.24 ± 0.13,68.883 ± 0.048,61.27 ± 0.062,53.39 ± 0.22,69.87 ± 0.1,62.27 ± 0.081,54.28 ± 0.14,-200 ± 6.1,-189 ± 6.7,-79.9 ± 2.2,-12.43 ± 0.11,61.28 ± 0.28,56.19 ± 0.12,58.32 ± 0.085,-209 ± 6.6,52.9
TTCGCGGTCTCCATTA,-65.2 ± 2.1,-60.9 ± 3,-11.23 ± 0.091,-10.18 ± 0.084,51.49 ± 0.12,,55.69 ± 0.27,68.99 ± 0.35,58.1 ± 0.25,70.45 ± 0.55,64.448 ± 0.036,59.57 ± 0.46,71.62 ± 0.38,65.33 ± 0.18,60.56 ± 0.28,73.14 ± 0.38,66.71 ± 0.2,61.77 ± 0.089,74.63 ± 0.43,67.75 ± 0.63,62.58 ± 0.18,-167 ± 6.1,-157 ± 8.9,-59.2 ± 4.2,-12 ± 0.26,,60.46 ± 0.26,62.978 ± 0.054,-146 ± 12,
CGATTTTGTCAAGCCT,-74 ± 2.7,-66.5 ± 1.8,-10.45 ± 0.08,-8.766 ± 0.018,45 ± 0.64,64.84 ± 0.3,48.27 ± 0.26,66.53 ± 0.27,50.1 ± 0.15,67.75 ± 0.37,58.86 ± 0.14,51.53 ± 0.24,68.64 ± 0.33,59.74 ± 0.12,52.43 ± 0.088,70.02 ± 0.072,60.94 ± 0.033,53.55 ± 0.096,70.68 ± 0.17,61.81 ± 0.11,54.55 ± 0.15,-197 ± 8.1,-179 ± 5.5,,,64.1,55.56 ± 0.073,57.82 ± 0.17,,52.6
AATGAGGAGTGAAATGG,-75.7 ± 1.2,-72.8 ± 1.3,-10.83 ± 0.037,-8.817 ± 0.012,45.74 ± 0.18,62.9 ± 0.89,48.55 ± 0.12,65.1 ± 0.71,50.54 ± 0.062,66.06 ± 0.59,60.42 ± 0.089,51.494 ± 0.05,67.14 ± 0.48,61.271 ± 0.056,52.36 ± 0.1,68.46 ± 0.62,62.43 ± 0.043,53.52 ± 0.054,69.63 ± 0.3,63.28 ± 0.098,54.406 ± 0.047,-201 ± 3.6,-198 ± 4,-73.5 ± 3.3,-12 ± 0.16,61.5,57.29 ± 0.22,59.317 ± 0.05,-190 ± 9.7,54.3 ± 0.28
TGCCATGTTGAAAACC,-76.1 ± 1.9,-74 ± 2.4,-10.63 ± 0.058,-8.447 ± 0.02,44.3 ± 0.54,63.56 ± 0.48,46.98 ± 0.17,65.51 ± 0.22,48.71 ± 0.25,66.6 ± 0.21,59.53 ± 0.1,49.82 ± 0.18,67.59 ± 0.15,60.34 ± 0.13,50.73 ± 0.22,68.82 ± 0.18,61.44 ± 0.11,51.73 ± 0.34,69.71 ± 0.33,62.27 ± 0.073,52.86 ± 0.13,-203 ± 5.8,-203 ± 7.4,-79.2 ± 2.6,-12.4 ± 0.13,61.32 ± 0.21,56.23 ± 0.2,58.37 ± 0.066,-207 ± 7.6,
